These results are taken from the supplement of paper PMC9112550, “Optimization of the antimicrobial peptide Bac7 by deep mutational scanning” (BMC Biology, 2022).

For the data set, the system named is Escherichia coli TOP10. Put plainly: shrunken log2 fold change of peptide-encoding DNA abundance (4.5 h post-induction vs induction); higher = less antimicrobial activity (less host growth inhibition). Particulars: time post-induction: 4.5 h; library: site-saturation at positions 5, 18, 19, 20.
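Also: peptides expressed intracellularly from a pBAD plasmid library in pooled LB shake-flask culture, induced with 0.3% L-arabinose, DNA abundance read by NGS, three biological replicates, DESeq2 with apeglm shrinkage.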

As to RRIRFRPPRLPRPRPRPLSYPRP, the “shrunken log2 fold change” value was -0.0166.

Take RRIRFRPPRLPRPRPRPYGAPRP: the “shrunken log2 fold change” value is -0.193.

With RRIRPRPPRLPRPRPRPTPIPRP, the “shrunken log2 fold change” value was determined as 0.336.

Turning to RRIRQRPPRLPRPRPRPHIMPRP, the “shrunken log2 fold change” value is -0.669.

In the case of RRIRQRPPRLPRPRPRPIIKPRP, the “shrunken log2 fold change” value is -0.111.

On to RRIRSRPPRLPRPRPRPPPVPRP, for which the “shrunken log2 fold change” value was 0.745.

For the sequence RRIRWRPPRLPRPRPRPTPAPRP, the “shrunken log2 fold change” value worked out at 0.584.

Regarding RRIRQRPPRLPRPRPRPKRSPRP, the “shrunken log2 fold change” value worked out at 0.0578.

RRIRKRPPRLPRPRPRPDDQPRP: the “shrunken log2 fold change” value was -0.018.

RRIRGRPPRLPRPRPRPIQKPRP: the “shrunken log2 fold change” value was found to be 0.0229.

With RRIRWRPPRLPRPRPRPFTRPRP, the “shrunken log2 fold change” value is -0.00433.

On to RRIRERPPRLPRPRPRPQSPPRP, for which the “shrunken log2 fold change” value was -0.062.

Consider RRIRVRPPRLPRPRPRPWIFPRP, for which the “shrunken log2 fold change” value was -0.389.

With RRIRERPPRLPRPRPRPWNSPRP, the “shrunken log2 fold change” value is 0.0019.

Consider RRIRTRPPRLPRPRPRPYLQPRP, for which the “shrunken log2 fold change” value is -0.525.

With RRIRIRPPRLPRPRPRPHIQPRP, the “shrunken log2 fold change” value is -0.791.

On to RRIRKRPPRLPRPRPRPYYPPRP, for which the “shrunken log2 fold change” value is -0.227.

Regarding RRIRKRPPRLPRPRPRPCPHPRP, the “shrunken log2 fold change” value was found to be 0.0793.

Regarding RRIRHRPPRLPRPRPRPVDCPRP, the “shrunken log2 fold change” value was -0.0119.

With RRIRQRPPRLPRPRPRPRPKPRP, the “shrunken log2 fold change” value was 0.936.

Take RRIRHRPPRLPRPRPRPICDPRP: the “shrunken log2 fold change” value is -0.174.

On to RRIRQRPPRLPRPRPRPVNGPRP, for which the “shrunken log2 fold change” value is -0.0109.

On to RRIRARPPRLPRPRPRPNFYPRP, for which the “shrunken log2 fold change” value was 0.0801.

For the sequence RRIRERPPRLPRPRPRPPMHPRP, the “shrunken log2 fold change” value is -0.171.

With RRIRHRPPRLPRPRPRPFWTPRP, the “shrunken log2 fold change” value is -0.766.

RRIRMRPPRLPRPRPRPIKAPRP: the “shrunken log2 fold change” value worked out at 0.0335.

On to RRIRQRPPRLPRPRPRPGNRPRP, for which the “shrunken log2 fold change” value is -0.0286.

As for RRIRFRPPRLPRPRPRPSFLPRP, the “shrunken log2 fold change” value was -0.572.

On to RRIRNRPPRLPRPRPRPSCMPRP, for which the “shrunken log2 fold change” value is -0.755.

As for RRIRCRPPRLPRPRPRPTLGPRP, the “shrunken log2 fold change” value was determined as 0.168.

With RRIRERPPRLPRPRPRPITTPRP, the “shrunken log2 fold change” value is -0.03.

RRIRRRPPRLPRPRPRPSGAPRP: the “shrunken log2 fold change” value worked out at 0.536.

RRIRRRPPRLPRPRPRPMKSPRP: the “shrunken log2 fold change” value amounted to 0.304.

Regarding RRIRFRPPRLPRPRPRPSYVPRP, the “shrunken log2 fold change” value is -0.501.

On to RRIRNRPPRLPRPRPRPNCAPRP, for which the “shrunken log2 fold change” value is -0.123.

As for RRIRARPPRLPRPRPRPWQGPRP, the “shrunken log2 fold change” value turned out to be 0.0405.

With RRIRIRPPRLPRPRPRPCHTPRP, the “shrunken log2 fold change” value is -0.0495.

With RRIRERPPRLPRPRPRPFPVPRP, the “shrunken log2 fold change” value is -0.214.

With RRIRERPPRLPRPRPRPNWAPRP, the “shrunken log2 fold change” value was determined as 0.0312.

RRIRKRPPRLPRPRPRPPYDPRP: the “shrunken log2 fold change” value is -0.0658.

Consider RRIRMRPPRLPRPRPRPSQMPRP, for which the “shrunken log2 fold change” value worked out at 0.344.

Take RRIRGRPPRLPRPRPRPSNFPRP: the “shrunken log2 fold change” value was 0.0228.

Consider RRIRYRPPRLPRPRPRPHYMPRP, for which the “shrunken log2 fold change” value was -1.45.

Take RRIRKRPPRLPRPRPRPTKHPRP: the “shrunken log2 fold change” value stood at 0.195.

As to RRIRMRPPRLPRPRPRPTLEPRP, the “shrunken log2 fold change” value is 0.259.

For the sequence RRIRHRPPRLPRPRPRPIHPPRP, the “shrunken log2 fold change” value was -0.154.

As to RRIRHRPPRLPRPRPRPCAPPRP, the “shrunken log2 fold change” value was 0.0642.

In the case of RRIRDRPPRLPRPRPRPEDLPRP, the “shrunken log2 fold change” value is 0.902.

For the sequence RRIRKRPPRLPRPRPRPFKQPRP, the “shrunken log2 fold change” value amounted to 0.0339.

Take RRIRNRPPRLPRPRPRPGKFPRP: the “shrunken log2 fold change” value is -0.034.

In the case of RRIRWRPPRLPRPRPRPTIRPRP, the “shrunken log2 fold change” value was -0.343.

RRIRTRPPRLPRPRPRPPMRPRP: the “shrunken log2 fold change” value is 0.957.

On to RRIRYRPPRLPRPRPRPCAVPRP, for which the “shrunken log2 fold change” value was -0.269.

Turning to RRIRERPPRLPRPRPRPCYGPRP, the “shrunken log2 fold change” value is -0.274.

For RRIRKRPPRLPRPRPRPEPDPRP, the “shrunken log2 fold change” value worked out at 0.877.

RRIRCRPPRLPRPRPRPPLWPRP: the “shrunken log2 fold change” value worked out at 0.32.

Regarding RRIRGRPPRLPRPRPRPSLEPRP, the “shrunken log2 fold change” value was 0.827.

For RRIRKRPPRLPRPRPRPMSNPRP, the “shrunken log2 fold change” value was -0.00773.

As to RRIRPRPPRLPRPRPRPPLSPRP, the “shrunken log2 fold change” value worked out at 0.161.

As for RRIRDRPPRLPRPRPRPTLSPRP, the “shrunken log2 fold change” value was determined as 0.262.

As for RRIRMRPPRLPRPRPRPGEIPRP, the “shrunken log2 fold change” value amounted to 0.995.

As to RRIRLRPPRLPRPRPRPTTYPRP, the “shrunken log2 fold change” value was -0.182.

Take RRIRFRPPRLPRPRPRPVQVPRP: the “shrunken log2 fold change” value was -0.416.

Take RRIRFRPPRLPRPRPRPFQSPRP: the “shrunken log2 fold change” value is -0.00947.

For RRIRARPPRLPRPRPRPAAQPRP, the “shrunken log2 fold change” value was found to be 0.916.

With RRIRHRPPRLPRPRPRPYVEPRP, the “shrunken log2 fold change” value was 0.0369.

In the case of RRIRIRPPRLPRPRPRPHGTPRP, the “shrunken log2 fold change” value was -0.236.

With RRIRWRPPRLPRPRPRPSDAPRP, the “shrunken log2 fold change” value was found to be 0.191.

Consider RRIRKRPPRLPRPRPRPWCSPRP, for which the “shrunken log2 fold change” value is -0.155.

As for RRIRWRPPRLPRPRPRPFDAPRP, the “shrunken log2 fold change” value was 0.029.

As to RRIRTRPPRLPRPRPRPIFSPRP, the “shrunken log2 fold change” value was -0.393.

Turning to RRIRVRPPRLPRPRPRPWGKPRP, the “shrunken log2 fold change” value is -0.0952.

For the sequence RRIRWRPPRLPRPRPRPPSAPRP, the “shrunken log2 fold change” value stood at 0.744.

With RRIRYRPPRLPRPRPRPRADPRP, the “shrunken log2 fold change” value is 0.0349.

Take RRIRIRPPRLPRPRPRPQQEPRP: the “shrunken log2 fold change” value was -0.056.

Turning to RRIRSRPPRLPRPRPRPYIRPRP, the “shrunken log2 fold change” value was -0.0533.

In the case of RRIRTRPPRLPRPRPRPICMPRP, the “shrunken log2 fold change” value was -0.348.

For RRIRYRPPRLPRPRPRPTKDPRP, the “shrunken log2 fold change” value was -1.04.

For the sequence RRIRQRPPRLPRPRPRPNTAPRP, the “shrunken log2 fold change” value was -0.0235.

For the sequence RRIRKRPPRLPRPRPRPVYFPRP, the “shrunken log2 fold change” value was -0.181.

With RRIRERPPRLPRPRPRPSEWPRP, the “shrunken log2 fold change” value is -0.0737.

With RRIRERPPRLPRPRPRPSAAPRP, the “shrunken log2 fold change” value worked out at 0.133.

Consider RRIRRRPPRLPRPRPRPILSPRP, for which the “shrunken log2 fold change” value came to 0.246.

Take RRIRVRPPRLPRPRPRPGWVPRP: the “shrunken log2 fold change” value turned out to be 0.0954.

On to RRIRARPPRLPRPRPRPGMIPRP, for which the “shrunken log2 fold change” value was found to be 0.237.

As to RRIRARPPRLPRPRPRPPAKPRP, the “shrunken log2 fold change” value was 1.12.

Turning to RRIRNRPPRLPRPRPRPKDVPRP, the “shrunken log2 fold change” value was -0.0116.

With RRIRVRPPRLPRPRPRPAIPPRP, the “shrunken log2 fold change” value is -0.356.

As to RRIRERPPRLPRPRPRPEKTPRP, the “shrunken log2 fold change” value was -0.031.

Consider RRIRMRPPRLPRPRPRPSDRPRP, for which the “shrunken log2 fold change” value came to 0.0714.

On to RRIRARPPRLPRPRPRPAEHPRP, for which the “shrunken log2 fold change” value was 0.193.

RRIRTRPPRLPRPRPRPRLPPRP: the “shrunken log2 fold change” value amounted to 0.119.

Take RRIRWRPPRLPRPRPRPERQPRP: the “shrunken log2 fold change” value is 0.353.

Consider RRIRDRPPRLPRPRPRPADTPRP, for which the “shrunken log2 fold change” value is -0.379.

With RRIRTRPPRLPRPRPRPHGVPRP, the “shrunken log2 fold change” value is -0.00162.

RRIRPRPPRLPRPRPRPKGGPRP: the “shrunken log2 fold change” value stood at 1.33.

RRIRIRPPRLPRPRPRPQTDPRP: the “shrunken log2 fold change” value is -0.232.

As to RRIRMRPPRLPRPRPRPEESPRP, the “shrunken log2 fold change” value is 0.113.

With RRIRMRPPRLPRPRPRPNTTPRP, the “shrunken log2 fold change” value stood at 0.191.

As for RRIRGRPPRLPRPRPRPWSCPRP, the “shrunken log2 fold change” value was 0.202.

RRIRQRPPRLPRPRPRPLNRPRP: the “shrunken log2 fold change” value was -0.191.

Take RRIRLRPPRLPRPRPRPKYFPRP: the “shrunken log2 fold change” value is -0.269.

For RRIRARPPRLPRPRPRPYYVPRP, the “shrunken log2 fold change” value is -0.169.

RRIRHRPPRLPRPRPRPRGDPRP: the “shrunken log2 fold change” value came out at 0.263.

For the sequence RRIRMRPPRLPRPRPRPKVMPRP, the “shrunken log2 fold change” value was found to be 0.201.

On to RRIRGRPPRLPRPRPRPRLRPRP, for which the “shrunken log2 fold change” value is 0.87.

RRIRTRPPRLPRPRPRPKRPPRP: the “shrunken log2 fold change” value is -0.165.

In the case of RRIRERPPRLPRPRPRPEIQPRP, the “shrunken log2 fold change” value came to 0.422.

In the case of RRIRERPPRLPRPRPRPAMIPRP, the “shrunken log2 fold change” value was -0.0554.

For the sequence RRIRSRPPRLPRPRPRPLVCPRP, the “shrunken log2 fold change” value amounted to 0.0734.

As to RRIRPRPPRLPRPRPRPQRVPRP, the “shrunken log2 fold change” value stood at 0.202.

RRIRARPPRLPRPRPRPAHGPRP: the “shrunken log2 fold change” value was found to be 0.694.

For RRIRFRPPRLPRPRPRPRRNPRP, the “shrunken log2 fold change” value was determined as 0.136.

Turning to RRIRFRPPRLPRPRPRPSEVPRP, the “shrunken log2 fold change” value was -0.0167.

For the sequence RRIRGRPPRLPRPRPRPHHIPRP, the “shrunken log2 fold change” value was -0.525.

RRIRCRPPRLPRPRPRPNDVPRP: the “shrunken log2 fold change” value is -0.215.

Regarding RRIRQRPPRLPRPRPRPPQIPRP, the “shrunken log2 fold change” value is 0.238.

Regarding RRIRCRPPRLPRPRPRPYKEPRP, the “shrunken log2 fold change” value amounted to 0.0662.

Consider RRIRERPPRLPRPRPRPLYSPRP, for which the “shrunken log2 fold change” value was -0.54.

On to RRIRLRPPRLPRPRPRPQHKPRP, for which the “shrunken log2 fold change” value was -0.0846.

On to RRIRFRPPRLPRPRPRPDPFPRP, for which the “shrunken log2 fold change” value was -0.341.

As to RRIRYRPPRLPRPRPRPYQFPRP, the “shrunken log2 fold change” value was -0.183.

For RRIRTRPPRLPRPRPRPTMGPRP, the “shrunken log2 fold change” value was 0.0301.

RRIRKRPPRLPRPRPRPVDCPRP: the “shrunken log2 fold change” value was -0.248.

For RRIRSRPPRLPRPRPRPCQHPRP, the “shrunken log2 fold change” value is -0.128.
